The data set deals with the molecule itself. In words: native gel or EMSA; native PAGE of lysate of untreated HEK293 cells, immunoblotting for the endogenous protein; recombinant USP25 tetramer and dimer fractions as size standard. For orientation: Mobility shift assays separate free from complexed probe on a gel.

B1: endogenous USP28 (enzyme, human (endogenous in HEK293), UniProt Q96RU2 1-1077, looked up)
chain: MTAELQQDDAAGAADGHGSSCQMLLNQLREITGIQDPSFLHEALKASNGDITQAVSLLTDERVKEPSQDTVATEPSEVEGSAANKEVLAKVIDLTHDNKDDLQAAIALSLLESPKIQADGRDLNRMHEATSAETKRSKRKRCEVWGENPNPNDWRRVDGWPVGLKNVGNTCWFSAVIQSLFQLPEFRRLVLSYSLPQNVLENCRSHTEKRNIMFMQELQYLFALMMGSNRKFVDPSAALDLLKGAFRSSEEQQQDVSEFTHKLLDWLEDAFQLAVNVNSPRNKSENPMVQLFYGTFLTEGVREGKPFCNNETFGQYPLQVNGYRNLDECLEGAMVEGDVELLPSDHSVKYGQERWFTKLPPVLTFELSRFEFNQSLGQPEKIHNKLEFPQIIYMDRYMYRSKELIRNKRECIRKLKEEIKILQQKLERYVKYGSGPARFPLPDMLKYVIEFASTKPASESCPPESDTHMTLPLSSVHCSVSDQTSKESTSTESSSQDVESTFSSPEDSLPKSKPLTSSRSSMEMPSQPAPRTVTDEEINFVKTCLQRWRSEIEQDIQDLKTCIASTTQTIEQMYCDPLLRQVPYRLHAVLVHEGQANAGHYWAYIYNQPRQSWLKYNDISVTESSWEEVERDSYGGLRNVSAYCLMYINDKLPYFNAEAAPTESDQMSEVEALSVELKHYIQEDNWRFEQEVEEWEEEQSCKIPQMESSTNSSSQDYSTSQEPSVASSHGVRCLSSEHAVIVKEQTAQAIANTARAYEKSGVEAALSEVMLSPAMQGVILAIAKARQTFDRDGSEAGLIKAFHEEYSRLYQLAKETPTSHSDPRLQHVLVYFFQNEAPKRVVERTLLEQFADKNLSYDERSISIMKVAQAKLKEIGPDDMNMEEYKKWHEDYSLFRKVSVYLLTGLELYQKGKYQEALSYLVYAYQSNAALLMKGPRRGVKESVIALYRRKCLLELNAKAASLFETNDDHSVTEGINVMNELIIPCIHLIINNDISKDDLDAIEVMRNHWCSYLGQDIAENLQLCLGEFLPRLLDPSAEIIVLKEPPTIRPNSPYDLCSRFAAVMESIQGVSTVTVK
notes: USP28, endogenous in untreated HEK293 cells; source: endogenous, HEK293 lysate
As for B1, the “stoichiometry N” value amounted to 2.

A word on the stoichiometry N: it is the number of molecules, sites or subunits per partner or assembly.

These data come from article PMC6509359 (Molecular Cell, 2019).
